One block for each substance: values may come before it.
Columns and labels:
[1] = tested on: LmuA(K68A), LmuA-KA;LmuB;LmuC; test: fluorescence anisotropy
[2] = target: SalEnt LmuA(K68A), catalytically dead nuclease effector, tag cleaved (Salmonella enterica subsp. enterica serovar Tennessee (strain TXSC_TXSC08-19)); test: cryo-EM structure
[3] = target: SalEnt LmuB, SMC-like (Rad50-like) ABC ATPase (Salmonella enterica subsp. enterica serovar Tennessee (strain TXSC_TXSC08-19)); test: cryo-EM structure

Substance: 40-mer dsDNA 6-FAM
Kd [1]: 180 nM

Substance: SalEnt LmuA(K68A), catalytically dead nuclease effector, tag cleaved (enzyme)
stoichiometry N [2]: 4

stoichiometry N [3]: 2
Substance: SalEnt LmuB, SMC-like (Rad50-like) ABC ATPase (natural protein)
